Here are results for 2 molecules from US20170158755A1 (PROTHENA BIOSCIENCES, published 2017).

The target in experiment [1] is T1, LGde2, human LAMA4 G domain with LG2 deleted, displayed on 293 cells (human, UniProt Q16363 830-1821, limits assumed).
T1 construct: pDisplay construct on 293 cells; vector tags and anchor not written here; also called LGde2 (LG13)
T1 sequence: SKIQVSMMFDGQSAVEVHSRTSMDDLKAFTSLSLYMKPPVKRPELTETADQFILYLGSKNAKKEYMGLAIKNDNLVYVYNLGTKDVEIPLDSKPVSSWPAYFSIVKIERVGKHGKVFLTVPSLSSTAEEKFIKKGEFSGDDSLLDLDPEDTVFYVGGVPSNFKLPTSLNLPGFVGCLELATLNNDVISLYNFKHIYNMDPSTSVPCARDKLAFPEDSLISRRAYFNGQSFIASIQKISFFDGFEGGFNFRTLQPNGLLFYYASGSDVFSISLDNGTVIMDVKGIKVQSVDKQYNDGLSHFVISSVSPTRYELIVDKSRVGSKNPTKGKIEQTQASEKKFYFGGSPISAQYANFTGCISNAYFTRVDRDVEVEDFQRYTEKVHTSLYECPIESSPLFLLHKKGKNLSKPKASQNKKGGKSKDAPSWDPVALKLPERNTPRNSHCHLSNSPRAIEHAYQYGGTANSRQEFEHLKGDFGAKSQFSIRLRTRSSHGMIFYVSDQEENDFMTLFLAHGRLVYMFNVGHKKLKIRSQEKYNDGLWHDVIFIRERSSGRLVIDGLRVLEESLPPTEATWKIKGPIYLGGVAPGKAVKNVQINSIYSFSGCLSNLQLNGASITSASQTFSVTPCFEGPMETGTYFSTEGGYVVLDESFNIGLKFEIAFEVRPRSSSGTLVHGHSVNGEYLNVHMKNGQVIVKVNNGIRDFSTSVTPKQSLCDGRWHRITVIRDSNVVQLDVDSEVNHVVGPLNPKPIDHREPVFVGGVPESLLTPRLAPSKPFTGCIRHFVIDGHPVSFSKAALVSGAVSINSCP
Kind of experiment: flow cytometry on 293 cells displaying LAMA4 G-domain variants; % binding. From the text: (§1) LGde1 has a full-length G domain (i.e., LG1-5) with LG1 deleted, LGde2 has a full-length G domain with LG2 deleted, and LGde3 has a full-length G domain with LG3 deleted. Recombinant MCAM-Fc protein was able to specifically bind 293 cells expressing LAMA4 variants LG1-5, LG1-3, and LGde 1 (LG23), but not 293 cells expressing LAMA 4 variants LG4-5, LGde2 (LG13), or LGde3 (LG12).
For orientation: Flow cytometry measures light scatter and fluorescence of single cells or particles in a stream.

Experiment [2] addresses T2, LGde3, human LAMA4 G domain with LG3 deleted, displayed on 293 cells (human, UniProt Q16363 830-1821, limits assumed).
T2 construct: pDisplay construct on 293 cells; vector tags and anchor not written here; also called LGde3 (LG12); LGde3 (LG23)
T2 sequence: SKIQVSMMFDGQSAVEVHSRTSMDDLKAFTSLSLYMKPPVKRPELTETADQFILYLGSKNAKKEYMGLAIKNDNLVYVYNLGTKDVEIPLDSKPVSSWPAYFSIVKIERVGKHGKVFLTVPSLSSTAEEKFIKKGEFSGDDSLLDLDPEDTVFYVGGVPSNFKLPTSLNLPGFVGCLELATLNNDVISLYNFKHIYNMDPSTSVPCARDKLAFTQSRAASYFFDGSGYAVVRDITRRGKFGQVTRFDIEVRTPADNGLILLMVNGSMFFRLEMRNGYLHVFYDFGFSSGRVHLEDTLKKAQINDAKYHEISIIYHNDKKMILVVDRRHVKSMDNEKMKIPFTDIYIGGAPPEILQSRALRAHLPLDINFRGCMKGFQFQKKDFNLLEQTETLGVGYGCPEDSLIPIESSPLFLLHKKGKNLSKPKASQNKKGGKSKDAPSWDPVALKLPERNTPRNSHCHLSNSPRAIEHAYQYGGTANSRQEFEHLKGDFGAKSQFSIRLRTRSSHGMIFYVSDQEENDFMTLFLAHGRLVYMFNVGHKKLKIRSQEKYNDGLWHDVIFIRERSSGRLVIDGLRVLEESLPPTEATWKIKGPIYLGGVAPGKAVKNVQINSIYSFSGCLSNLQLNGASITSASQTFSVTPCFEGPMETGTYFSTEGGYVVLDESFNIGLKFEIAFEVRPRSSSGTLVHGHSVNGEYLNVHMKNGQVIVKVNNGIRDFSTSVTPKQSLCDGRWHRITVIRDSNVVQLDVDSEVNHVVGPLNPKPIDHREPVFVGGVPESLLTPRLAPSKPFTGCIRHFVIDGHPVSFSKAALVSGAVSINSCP
The experiment is described as above.
Text: as §1

The target in experiment [3] is T3, recombinant laminin 411 (human, UniProt P07942 22-1786; P11047 34-1609, limits assumed).
T3 construct: also called LAMA4 in complex with its gamma1 and beta1 chains
T3 sequence (chain, as listed by the source limits assumed, chain 1 of 3): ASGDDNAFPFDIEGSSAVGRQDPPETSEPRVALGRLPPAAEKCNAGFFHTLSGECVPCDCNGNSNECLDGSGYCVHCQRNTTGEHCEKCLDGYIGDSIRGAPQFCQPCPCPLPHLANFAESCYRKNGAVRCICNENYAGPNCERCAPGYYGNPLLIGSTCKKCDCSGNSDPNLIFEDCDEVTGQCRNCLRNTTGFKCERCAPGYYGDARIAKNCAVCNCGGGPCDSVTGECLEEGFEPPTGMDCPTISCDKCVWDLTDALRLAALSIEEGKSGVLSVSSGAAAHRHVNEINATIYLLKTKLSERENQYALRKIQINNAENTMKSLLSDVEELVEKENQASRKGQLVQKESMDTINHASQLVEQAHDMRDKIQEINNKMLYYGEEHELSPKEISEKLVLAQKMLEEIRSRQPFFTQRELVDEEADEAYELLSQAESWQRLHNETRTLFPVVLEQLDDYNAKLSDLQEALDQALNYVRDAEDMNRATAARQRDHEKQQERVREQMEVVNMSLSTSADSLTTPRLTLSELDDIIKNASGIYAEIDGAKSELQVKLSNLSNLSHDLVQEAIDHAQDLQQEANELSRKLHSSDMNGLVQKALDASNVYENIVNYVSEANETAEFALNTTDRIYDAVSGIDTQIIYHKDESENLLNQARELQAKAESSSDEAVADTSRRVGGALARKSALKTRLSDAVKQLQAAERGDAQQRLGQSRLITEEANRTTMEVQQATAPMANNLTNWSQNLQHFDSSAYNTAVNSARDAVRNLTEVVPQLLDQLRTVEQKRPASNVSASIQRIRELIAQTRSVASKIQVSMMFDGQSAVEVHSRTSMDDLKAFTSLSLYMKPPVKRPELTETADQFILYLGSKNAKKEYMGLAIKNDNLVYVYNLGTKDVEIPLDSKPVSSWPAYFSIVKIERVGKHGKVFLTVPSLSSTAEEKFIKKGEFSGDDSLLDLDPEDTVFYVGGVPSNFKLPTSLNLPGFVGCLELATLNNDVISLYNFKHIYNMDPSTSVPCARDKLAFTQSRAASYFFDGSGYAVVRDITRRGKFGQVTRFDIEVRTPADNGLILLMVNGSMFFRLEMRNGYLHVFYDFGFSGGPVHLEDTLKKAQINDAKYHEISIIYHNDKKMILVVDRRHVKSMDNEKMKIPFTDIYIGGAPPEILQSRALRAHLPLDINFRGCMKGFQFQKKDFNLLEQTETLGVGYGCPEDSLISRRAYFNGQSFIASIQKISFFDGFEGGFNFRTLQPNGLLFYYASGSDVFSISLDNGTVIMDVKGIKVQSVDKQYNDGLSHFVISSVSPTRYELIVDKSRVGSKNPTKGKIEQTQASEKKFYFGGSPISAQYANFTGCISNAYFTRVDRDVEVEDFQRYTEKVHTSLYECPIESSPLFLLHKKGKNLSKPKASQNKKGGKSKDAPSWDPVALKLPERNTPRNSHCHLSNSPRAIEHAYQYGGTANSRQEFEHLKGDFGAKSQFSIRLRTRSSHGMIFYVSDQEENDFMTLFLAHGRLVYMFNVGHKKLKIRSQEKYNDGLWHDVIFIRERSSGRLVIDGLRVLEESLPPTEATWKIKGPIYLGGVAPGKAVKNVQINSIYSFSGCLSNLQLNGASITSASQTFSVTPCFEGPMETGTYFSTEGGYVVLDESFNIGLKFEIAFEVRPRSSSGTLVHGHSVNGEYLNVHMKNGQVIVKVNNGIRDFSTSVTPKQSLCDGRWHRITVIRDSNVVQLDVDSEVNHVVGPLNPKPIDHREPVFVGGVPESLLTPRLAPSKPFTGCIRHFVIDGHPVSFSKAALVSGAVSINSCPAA
T3 sequence (P07942 22-1786 limits assumed, chain 2 of 3): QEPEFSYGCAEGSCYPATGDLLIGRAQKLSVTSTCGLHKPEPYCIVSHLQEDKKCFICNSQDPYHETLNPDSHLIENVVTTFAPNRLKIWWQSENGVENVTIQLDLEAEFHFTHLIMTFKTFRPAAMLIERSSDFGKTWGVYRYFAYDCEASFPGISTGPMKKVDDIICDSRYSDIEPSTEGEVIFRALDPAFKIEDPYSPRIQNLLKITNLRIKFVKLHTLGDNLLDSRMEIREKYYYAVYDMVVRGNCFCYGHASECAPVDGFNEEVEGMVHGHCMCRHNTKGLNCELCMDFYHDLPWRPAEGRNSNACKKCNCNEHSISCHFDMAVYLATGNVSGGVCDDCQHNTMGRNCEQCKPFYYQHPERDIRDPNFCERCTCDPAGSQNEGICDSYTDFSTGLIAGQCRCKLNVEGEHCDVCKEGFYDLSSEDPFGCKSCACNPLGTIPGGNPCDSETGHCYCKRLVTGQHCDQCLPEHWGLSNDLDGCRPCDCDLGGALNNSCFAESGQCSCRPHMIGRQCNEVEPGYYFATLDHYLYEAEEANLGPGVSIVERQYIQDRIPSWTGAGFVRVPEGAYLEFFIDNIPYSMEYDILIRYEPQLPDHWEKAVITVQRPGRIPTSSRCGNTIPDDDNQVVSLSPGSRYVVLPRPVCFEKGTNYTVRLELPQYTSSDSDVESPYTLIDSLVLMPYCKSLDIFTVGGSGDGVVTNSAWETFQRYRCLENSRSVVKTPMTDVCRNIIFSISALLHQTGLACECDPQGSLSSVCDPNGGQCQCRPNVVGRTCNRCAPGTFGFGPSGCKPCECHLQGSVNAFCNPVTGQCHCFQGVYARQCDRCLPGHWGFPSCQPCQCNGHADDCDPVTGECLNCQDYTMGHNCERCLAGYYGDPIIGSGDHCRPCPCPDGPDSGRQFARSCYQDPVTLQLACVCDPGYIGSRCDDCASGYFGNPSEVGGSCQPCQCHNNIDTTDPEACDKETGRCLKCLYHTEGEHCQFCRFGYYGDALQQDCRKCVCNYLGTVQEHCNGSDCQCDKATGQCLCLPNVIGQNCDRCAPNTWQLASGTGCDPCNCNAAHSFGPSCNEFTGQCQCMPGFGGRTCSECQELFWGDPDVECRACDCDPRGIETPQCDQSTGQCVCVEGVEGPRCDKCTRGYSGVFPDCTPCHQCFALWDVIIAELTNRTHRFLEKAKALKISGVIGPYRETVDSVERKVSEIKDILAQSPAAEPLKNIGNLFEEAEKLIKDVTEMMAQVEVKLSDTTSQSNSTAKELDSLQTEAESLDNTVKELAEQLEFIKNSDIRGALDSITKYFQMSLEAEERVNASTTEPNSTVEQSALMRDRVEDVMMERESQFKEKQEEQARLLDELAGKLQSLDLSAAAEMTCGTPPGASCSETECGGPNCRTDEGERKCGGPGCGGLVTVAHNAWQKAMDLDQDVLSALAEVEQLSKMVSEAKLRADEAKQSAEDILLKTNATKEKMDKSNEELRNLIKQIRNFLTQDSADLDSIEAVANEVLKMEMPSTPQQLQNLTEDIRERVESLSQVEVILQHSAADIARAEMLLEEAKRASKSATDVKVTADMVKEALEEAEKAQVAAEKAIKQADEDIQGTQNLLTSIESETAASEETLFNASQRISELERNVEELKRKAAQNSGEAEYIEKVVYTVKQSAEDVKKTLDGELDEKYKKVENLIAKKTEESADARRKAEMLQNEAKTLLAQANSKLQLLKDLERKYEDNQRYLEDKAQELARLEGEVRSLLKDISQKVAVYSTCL
T3 sequence (P11047 34-1609 limits assumed, chain 3 of 3): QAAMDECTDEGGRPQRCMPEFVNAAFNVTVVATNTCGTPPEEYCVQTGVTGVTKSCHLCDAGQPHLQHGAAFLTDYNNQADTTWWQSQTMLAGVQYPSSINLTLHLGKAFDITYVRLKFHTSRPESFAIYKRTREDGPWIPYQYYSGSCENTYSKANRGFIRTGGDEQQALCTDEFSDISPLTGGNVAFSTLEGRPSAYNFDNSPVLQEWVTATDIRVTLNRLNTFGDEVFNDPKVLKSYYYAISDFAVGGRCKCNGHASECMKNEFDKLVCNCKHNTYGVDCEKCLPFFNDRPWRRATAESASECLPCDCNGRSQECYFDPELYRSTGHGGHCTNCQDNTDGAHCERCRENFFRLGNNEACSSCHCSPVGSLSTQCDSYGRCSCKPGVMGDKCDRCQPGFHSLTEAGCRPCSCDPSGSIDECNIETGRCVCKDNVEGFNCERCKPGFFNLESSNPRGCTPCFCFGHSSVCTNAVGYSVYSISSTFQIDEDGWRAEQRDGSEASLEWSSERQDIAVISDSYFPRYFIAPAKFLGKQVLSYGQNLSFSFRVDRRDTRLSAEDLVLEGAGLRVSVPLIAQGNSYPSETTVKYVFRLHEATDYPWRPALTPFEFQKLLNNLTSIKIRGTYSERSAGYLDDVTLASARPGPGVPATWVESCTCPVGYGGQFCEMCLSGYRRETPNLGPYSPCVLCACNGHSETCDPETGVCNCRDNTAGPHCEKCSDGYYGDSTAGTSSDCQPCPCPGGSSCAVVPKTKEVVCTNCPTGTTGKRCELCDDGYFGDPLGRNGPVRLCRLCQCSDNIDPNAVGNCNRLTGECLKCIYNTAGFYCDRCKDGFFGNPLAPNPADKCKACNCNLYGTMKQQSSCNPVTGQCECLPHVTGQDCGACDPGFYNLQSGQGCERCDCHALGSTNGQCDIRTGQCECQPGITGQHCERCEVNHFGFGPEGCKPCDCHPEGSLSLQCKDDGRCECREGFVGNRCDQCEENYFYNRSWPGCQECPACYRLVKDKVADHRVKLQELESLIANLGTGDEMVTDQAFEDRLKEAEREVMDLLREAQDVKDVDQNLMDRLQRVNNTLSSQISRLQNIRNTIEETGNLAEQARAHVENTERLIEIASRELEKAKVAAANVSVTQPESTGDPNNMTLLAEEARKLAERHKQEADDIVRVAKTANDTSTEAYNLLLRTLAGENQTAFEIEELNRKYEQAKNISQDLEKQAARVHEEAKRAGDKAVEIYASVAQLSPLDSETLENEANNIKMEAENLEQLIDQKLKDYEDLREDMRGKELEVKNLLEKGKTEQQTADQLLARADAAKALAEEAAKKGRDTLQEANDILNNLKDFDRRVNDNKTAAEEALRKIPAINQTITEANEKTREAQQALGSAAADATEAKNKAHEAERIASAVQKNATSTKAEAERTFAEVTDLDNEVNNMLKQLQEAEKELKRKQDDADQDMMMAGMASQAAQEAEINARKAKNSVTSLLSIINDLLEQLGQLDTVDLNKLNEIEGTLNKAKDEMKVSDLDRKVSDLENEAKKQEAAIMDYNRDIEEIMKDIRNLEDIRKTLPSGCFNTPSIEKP
Kind of experiment: hMCAM.CHO flow cytometric blocking assay; antibody pre-incubated with laminin 411; blocked partner: human MCAM on CHO cells. The procedure:
The monoclonal antibodies against LAMA4 were tested for their ability to block the binding of LAMA4 to its ligand MCAM. IgG control antibody, 1C1, 5Al2, 5B5, 19C12, and 12D3 were pre-incubated with recombinant LAMA4 protein, LAMA4-positive healthy mouse brain tissue, or LAMA4-displaying human 293 cells. […] For the mouse brain tissue blocking assay, antibodies were used at concentrations of 2.5 ug/ml or 0.04 ug/ml.
Following two washes with FACS buffer (1% FBS in PBS), cells were resuspended with 650-conjugated anti-pan-laminin antibody (1:1000; Novus Biologicals) and incubated for 20 min at 4° C., and washed again. Cells were analyzed for pan-laminin reactivity by flow cytometry using standard procedures.

B1: mouse monoclonal antibody 19C12 (antibody, V domains shown)
VH: QVQLQQSGAELVKPGASVKISCKASGYAFSTYWMNWVKQRPGEGLEWIGQIYPGDGDTNYNGKFKGKATLTADKSSSTAYMQLSSLTSEDSAVYFCARSDGYYDYWGQGTTLTVSS
VL: NIVLTQSPASLAVSLGQRATISCRASESVDSYGTSFMHWYQQKPGQPPKLLICLASSLESGVPARFSGSGSRTDFTLTIDPVEADDAATYYCQQNNEDPPTFGAGTKLELKR
notes: Mouse hybridoma antibody; Mouse IgG2b was used as its isotype control; also called m19C12
On to B1, for which the binding result in experiment [1] and in experiment [2] was “no binding” throughout. In experiment [3], the “IC50 (read off the curve)” value is around 0.03 µg/mL.

B2: mouse monoclonal antibody 1C1 (antibody, V domains shown)
VH: QVQLQQSGAELARPGASVKLSCKASGYTFTNYGISWVKQRTGQGLEWIGAIYPRSGNTYYNEKFKGKATLTADKSSSTAYMELRSLTSEDSAVYFCARERDYGSSYALDYWGQGTSVTVSS
VL: DIVMTQSQKFMSTSVGDRVSVTCKASHNVGTNVAWYQQKPGQSPKPLIYSASYRYSGVPDRFTGSGSGTDFTLTISNVQSEDLADYFCQQFNNYPYTFGGGTKLEIKR
notes: version 1 is written here
Take B2: the binding result in experiment [1] and in experiment [2] was “no binding” each time.
